In patent US20220089784A1 (University of California, published 2022):

T1: BoNT/B light chain (recombinant) (Clostridium botulinum, UniProt P10844 1-441)
T1 sequence: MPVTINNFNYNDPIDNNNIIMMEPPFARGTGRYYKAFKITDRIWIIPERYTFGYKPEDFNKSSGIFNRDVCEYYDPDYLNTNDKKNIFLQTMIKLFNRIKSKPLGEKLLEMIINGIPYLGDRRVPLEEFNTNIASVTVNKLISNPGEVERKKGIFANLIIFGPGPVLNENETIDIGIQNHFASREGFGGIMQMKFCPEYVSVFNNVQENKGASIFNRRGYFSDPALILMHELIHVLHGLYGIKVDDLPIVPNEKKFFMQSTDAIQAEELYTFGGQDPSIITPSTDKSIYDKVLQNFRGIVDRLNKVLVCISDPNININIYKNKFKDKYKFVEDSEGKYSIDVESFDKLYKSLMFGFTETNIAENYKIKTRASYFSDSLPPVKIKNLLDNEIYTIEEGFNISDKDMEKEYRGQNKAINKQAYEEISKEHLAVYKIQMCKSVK

T2: BoNT/F1 (proteolytic BoNT/F) (Clostridium botulinum, UniProt A7GBG3 1-1278)
T2 sequence: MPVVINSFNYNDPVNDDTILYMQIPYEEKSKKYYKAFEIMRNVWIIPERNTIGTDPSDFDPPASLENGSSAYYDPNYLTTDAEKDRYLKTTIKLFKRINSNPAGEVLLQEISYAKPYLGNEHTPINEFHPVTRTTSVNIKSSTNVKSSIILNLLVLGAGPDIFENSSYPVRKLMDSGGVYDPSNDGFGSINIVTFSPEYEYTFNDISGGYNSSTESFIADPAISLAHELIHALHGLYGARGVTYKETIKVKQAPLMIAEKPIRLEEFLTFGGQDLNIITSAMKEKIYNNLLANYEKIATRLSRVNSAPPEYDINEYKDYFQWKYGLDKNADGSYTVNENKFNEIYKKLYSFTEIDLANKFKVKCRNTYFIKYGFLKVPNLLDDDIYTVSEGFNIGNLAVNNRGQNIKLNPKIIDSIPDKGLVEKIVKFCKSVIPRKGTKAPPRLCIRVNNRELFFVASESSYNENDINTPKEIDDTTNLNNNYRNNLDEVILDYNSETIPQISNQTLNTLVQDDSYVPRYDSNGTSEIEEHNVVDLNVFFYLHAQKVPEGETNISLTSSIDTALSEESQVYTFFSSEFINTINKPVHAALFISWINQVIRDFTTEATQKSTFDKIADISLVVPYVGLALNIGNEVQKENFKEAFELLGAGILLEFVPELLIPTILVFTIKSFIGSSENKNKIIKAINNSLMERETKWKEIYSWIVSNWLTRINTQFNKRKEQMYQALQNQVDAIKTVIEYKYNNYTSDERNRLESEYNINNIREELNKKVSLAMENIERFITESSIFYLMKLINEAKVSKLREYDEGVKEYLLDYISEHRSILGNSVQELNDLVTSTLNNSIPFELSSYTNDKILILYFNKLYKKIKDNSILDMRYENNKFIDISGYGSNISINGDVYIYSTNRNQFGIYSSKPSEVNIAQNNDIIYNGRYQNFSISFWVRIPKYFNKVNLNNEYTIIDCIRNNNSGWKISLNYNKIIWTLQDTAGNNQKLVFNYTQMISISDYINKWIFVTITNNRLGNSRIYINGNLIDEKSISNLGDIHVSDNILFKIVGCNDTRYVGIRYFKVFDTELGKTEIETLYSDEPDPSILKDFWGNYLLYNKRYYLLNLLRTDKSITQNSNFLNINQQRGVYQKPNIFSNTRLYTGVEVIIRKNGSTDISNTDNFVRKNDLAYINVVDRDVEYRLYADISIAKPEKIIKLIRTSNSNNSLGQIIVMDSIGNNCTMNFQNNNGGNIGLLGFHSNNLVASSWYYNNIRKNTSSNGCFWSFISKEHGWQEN


Tests used:
[1] = molecular target: T1, BoNT/B light chain (recombinant); test: yeast scFv FACS
[2] = molecular target: T2, BoNT/F1 (proteolytic BoNT/F); test: yeast scFv FACS

Binder | Kd [1] [nM] | Kd [2] [nM]
31C3 scFv (scFv, mouse) scFv: EVKLVETGPELKKPGETVKISCKASGYTFTNYGMNWVKQAPGKGLKWMGWINTNTGEPTYAEEFKGRFAFSLETSASTAFLQINNLKNEDTATYFCARGPIYYGTSYRFFDVWGTGTSVTVSSVDLKSGGSTSGSGKPGSGEGSSGSARQIVLTQSPAIMSASPGEKVTMTCRASSSVSSSYLHWYQQKPGSSPKLWIYSTSNLASGVPARFSGSGSGTSYSLTISRMEAEDAATYFCQQWSSFPPTFGGGTKLELK | 5.27 | 
37B4 scFv (scFv, V domains shown) VH: QVQLVQSGAEVKKPGSSVKVSCKASGGTFSSYAISWVRQAPGQGLEWMGGIIPIFGTANYAQKFQGRVTITTDTSTSTAYMELRSLRSDDTAVYYCARDEDYYDSSGYYDYWGQGTLVTVSS VL: QTVVTQEPSLTVAPGGTVTLTCGSSAGAVTTDHYPSWFQKKPGQAPTTIIYDTTNKHSMTPGPARFSGSLLGGKAALTLSGAQPEDEAEYYCFLSYRGSRPVFGGGTKVTVL |  | 10.1
31E2 scFv (scFv, mouse) scFv: EVKLVESGAELVRPGASVKLSCTASGFNIKDDYVHWVKQRPEQGLEWIGRIDPEDGETKYAPKFQGKATITADTSSNTAYLQLSSLTSEDTAVYYCALWSNWYFDVWGAGTTVTVSSVDLKSGGSTSGSGKPGSGEGSSGSAREIVLTQSPAIMSASPGEKVTMTCRASSSVSYMHWYQQKPGSSPKPWIYATSNLASGVPARFSGSGSGTSYSLTISRVEAEDAATYYCQQWTSNPPTFGGGTKLEIK | 17.1 | 
38D11 scFv (scFv, V domains shown) VH: QVQLQESGGGVVQPGRSLRLSCAASGFTFSSYGMHWVRQAPGKGLEWVAVIWYDGSNKYYADSVKGRFTISRDNSKNTLYLQMNSLRAEDTAVYYCARDKGWELMTNTDAFDIWGQGTLVTVSS VL: not shown |  | 29.1
39D1.1 scFv (scFv, V domains shown) VH: EVQLVQSGGNLVQPGGSLRLSCAATGPIGSHWMTWVRQAPGQGLEWVANINLDGTEKFYVDSVKGRFTVSRDNRKSSVFLQMNNLRVDDTAVYYCARLQWGGYDGWLSPWGQGTLVTVSS VL: DIVMTQSPPSLSASVGDRVSLTCRASEYIGTSLNWYQQKPGKAPKLLIYAASALHSGVPSRFSGSGSGTDFTLTISGLQPEDFATYYCQQANDLPLTFGGGTKLEIK |  | 0.747
41A4 scFv (scFv, V domains shown) VH: EVQLVQSGGNLVQPGGSLRLSCAATGPIGSHWMTWVRQAPGQGLEWVANINLDGTEKFYVDSVKGRFTVSRDNRKSSVFLQMNNLRVDDTAVYYCARLQWGGYDGWLSPWGQGTLVTVSS VL: DIVMTQSPPSLSASVGDRVSLTCRASEYIGTSLNWYQQKPGKAPKLLIYAASALHSGVPSRFSGSGSGTDFTLTISGLQPEDFATYYCQQTNDLPLTFGGGTKLEIK |  | 0.533
41B7 scFv (scFv, V domains shown) VH: EVQLVQSGGNLVQPGGSLRLSCAATGPIGSHWMTWVRQAPGQGLEWVANINLDGTEKFYVDSVKGRFTVSRDNRKSSVFLQMNNLRVDDTAVYYCARLQWGGYDGWLSPWGQGTLVTVSS VL: DIVMTQSPPSLSASVGDRVSLTCRASEYIGTSLNWYQQKPGTAPKLLIYAASALHSGVPSRFSGSGSGTDFTLTISGLQPEDFATYYCQQANDLPLTFGGGTKLEIK |  | 0.892
31A5 scFv (scFv, mouse) scFv: DVQLQESGPELVKPGASVKISCKASGYSFTDYNMNWVKQSNGKSLEWIGVINPNYGTTSYNQKFKGKATLTVDQSSSTAYMQLNSLTSEDSAVYYCARSGGTGYYFDYWGQGTTLTVSSVDLKSGGSTSGSGKPGSGEGSSGSARQIVLTQSPAILSASPGEKVTMTCRASSSVSYMHWYQQKPGSSPKAWIYATSNLASGVPARFSGSGSGTSYSLTISRVEAEDAATYYCQQWSSYPPTFGSGTKLEIK | 9.31 | 
31A5.1 scFv (scFv, mouse) scFv: DVQLQESGPELVKPGASVKISCKASGYSFTDYNMNWVKQSNGKSLEWIGVINPNYGTTSYNQKFKGKATLTVDQSSSTAYMQLNSLTSEDSAVYYCARSGGTGYYFDYWGQGTTLTVSSVDLKSGGSTSGSGKPGSGEGSSGSARQIVLTQSPAILSASPGEKVAMTCRASSSVSYMHWYQQKPGSSPKLLIYDTSNLASGVPVRFSGSGSGTSYSLTISRMEAEDAATYYCQQWSSYPPTFGGGTKLEIK | 1.75 | 
